Positions count from the first letter of the chain named. Names may count otherwise.
T1: 인간 OX40L 단백질 (OX40L-his; ACROBiosystems Cat# OXL-H52Q8) (human, UniProt P23510 51-183)
T1 sequence: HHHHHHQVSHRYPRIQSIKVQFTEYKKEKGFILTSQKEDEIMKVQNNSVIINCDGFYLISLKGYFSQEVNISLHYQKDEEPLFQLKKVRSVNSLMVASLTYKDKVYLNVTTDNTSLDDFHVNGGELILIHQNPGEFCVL

B1: reference 항-OX40L 항체 O4L (oxelumab VH/VL) (antibody, human IgG4 S228P, kappa, V domains shown)
VH: EVQLLESGGGLVQPGGSLRLSCAASGFTFNSYAMSWVRQAPGKGLEWVSIISGSGGFTYYADSVKGRFTISRDNSRTTLYLQMNSLRAEDTAVYYCAKDRLVAPGTFDYWGQGALVTVSS
VL: DIQMTQSPSSLSASVGDRVTITCRASQGISSWLAWYQQKPEKAPKSLIYAASSLQSGVPSRFSGSGSGTDFTLTISSLQPEDFATYYCQQYNSYPYTFGQGTKLEIKR
B2: 이중 특이성 항체 02C09-TNFαi HC (bispecific antibody)
heavy: not shown
light: DIQMTQSPSSLSASLGDRVTITCRASQSIGRWLAWYQQKPGNAPKLLIYKATILESGVPSRFSGSGSGTEFALTISSLQPDDFSAYYCQQYNSYPYTFGQGTKLEIKRTVAAPSVFIFPPSDEQLKSGTASVVCLLNNFYPREAKVQWKVDNALQSGNSQESVTEQDSKDSTYSLSSTLTLSKADYEKHKVYACEVTHQGLSSPVTKSFNRGEC
B3: 항 OX40L 항체 Hu3F07 (antibody, human IgG4 S228P, kappa, V domains shown)
VH: QVQLVQSGAEVKKPGASVKVSCKASGFTFPDYWMHWVRQAPGQGLEWMGEIDPPNGRTNYNEKFKSRVTMTRDTSISTAYMELSRLRSDDTAVYYCARGIYYVDYWGQGTTVTVSS
VL: DIVMTQSPLSLPVTLGEPASISCRSSQSLVHSNGNTYLHWYLQKPGQSPQLLIYKVSNRFSGVPDRFSGSGSGTDFTLKISRVEAEDVGVYYCSQSTHVPPTFGGGTKLEIKR
B4: 항 OX40L 항체 21G07 (antibody, human IgG4 S228P, kappa, V domains shown)
VH: QVQLQQSGAELVKPGASVKLSCKASGYTFTNYWMQWVKQRPGQGLEWIGEIDPSDGRTNYNEKFKNKATLTVDRSSSTAYIKLSSLTSEDSAVYYCAREVSLRSMDYWGQGTSVTVSS
VL: B3 VL with M4L, T14S, E17D, P18Q, Q50K, V88L, Y92F, P101F, G105S
B5: 항 OX40L 항체 10H07 (antibody, human IgG4 S228P, kappa, V domains shown)
VH: QVYLQQSGAELVKPGASVKLSCKASGYTFTDYWMHWVKQRPGQGLEWIGEIDPGNGRTNYNEKFKNKATLSVDKSSNTAYMQFSSLTSEDSAVFYCASEGAGRGFPYWGQGTLVTVSA
VL: B3 VL with I2V, M4L, S7T, T14S, E17D, P18Q, Q50K, V88L, Y92F, P101W
B6: 이중 특이성 항체 Hu3F07-TNFαi HC (bispecific antibody)
heavy: not shown
light: DIVMTQSPLSLPVTLGEPASISCRSSQSLVHSNGNTYLHWYLQKPGQSPQLLIYKVSNRFSGVPDRFSGSGSGTDFTLKISRVEAEDVGVYYCSQSTHVPPTFGGGTKLEIKRTVAAPSVFIFPPSDEQLKSGTASVVCLLNNFYPREAKVQWKVDNALQSGNSQESVTEQDSKDSTYSLSSTLTLSKADYEKHKVYACEVTHQGLSSPVTKSFNRGEC
B7: 이중 특이성 항체 I3F07-TNFαi HC (bispecific antibody)
heavy: not shown
light: B6 light with M4L, T14S, E17D, P18Q, Q50K, V88L, Y92F, T107S

Target: T1, 인간 OX40L 단백질 (OX40L-his; ACROBiosystems …)
Assay: cell-based or functional assay

| IC50 (nM), OX40L blockade assay | IC50 (μg/mL), OX40L blockade assay | Binder |
| --- | --- | --- |
| 1.95 nM | 0.293 µg/mL | B1 |
| 0.59 nM | 0.117 µg/mL | B2 |
| 0.2 nM | 0.03 µg/mL | B3 |
| 0.85 nM | 0.128 µg/mL | B4 |
| 0.41 nM | 0.061 µg/mL | B5 |
| 0.21 nM | 0.041 µg/mL | B6 |

Target: T1, 인간 OX40L 단백질 (OX40L-his; ACROBiosystems …)
Assay: cell-based or functional assay
Remark: another data set of the same source

| IC50 (nM), OX40L blockade assay | Binder |
| --- | --- |
| 0.91 nM | B7 |

Target: 인간 TNFα (ACROBiosystems TNF-H5228) (human, UniProt P01375 77-233)
Assay: cell-based or functional assay

Chain of 인간 TNFα (ACROBiosystems TNF-H5228) (P01375 77-233 limits assumed): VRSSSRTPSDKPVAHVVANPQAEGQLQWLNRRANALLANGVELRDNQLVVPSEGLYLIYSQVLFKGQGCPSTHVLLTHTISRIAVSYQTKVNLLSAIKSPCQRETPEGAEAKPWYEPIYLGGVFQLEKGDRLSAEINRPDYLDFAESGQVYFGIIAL

| IC50 (nM), TNFα blockade assay | Binder |
| --- | --- |
| 0.055 nM | B7 |

From patent KR20220081857A (dated 2022)
